Literature values in US20250341526A1, “NOVEL DYES” (Quantum-Si Incorporated, priority 2024, published 2025).
Substitutions are numbered along the chain they refer to.

B1: PS391: ClpS amino acid recognition protein, SEQ ID NO: 19 (protein)
chain: MGQTVEKPRVEGPGTGLGGSWRVIVRNDDHNTFDHVARTLARFIPGVSLERGHEIAKVIHTTGRAVVYTGHKEAAEHYWQQLKGAGLTMAPLEQG
B2: PS393: ClpS amino acid recognition protein, SEQ ID NO: 21 (protein)
chain: MSDEDGEDGDENAVGIATRTRTRTKKPTPYRVLLLNDDYTPMEFVVLVLQRFFRMSIEDATRVMLQVHQKGVGVCGVFTYEVAETKVSQVIDFARQNQHPLQCTLEKA
B3: PS392: ClpS amino acid recognition protein, SEQ ID NO: 20 (protein)
chain: MSVEIIEKRSTVRKLAPRYRVLLHNDDFNPMEYVVQTLMATVPSLTQPQAVNVMMEAHTNGMGLVIVCALEHAEFYAETLNNHGLGSSIEPDD
B4: PS394: ClpS amino acid recognition protein, SEQ ID NO: 22 (protein)
chain: MAERRDTGDDEGTGLGIATKTRSKTKKPTPYRVLMLNDDYTPMEFVVLCLQRFFRMNMEEATRVMLHVHQKGVGVCGVFSYEVAETKVGQVIDFARANQHPLQCTLEKA
B5: PS390: ClpS amino acid recognition protein, SEQ ID NO: 18 (protein)
chain: MLSIAAVTEAPSKGVQTADPKTVRKPYPNYKVIVLNDDFNTFQHVSSCLLKYIPGMSEARAWELTNQVHFEGLAVVWVGPQEQAELYYAQLKNAGLTMAPPEPA
B6: PS395: ClpS amino acid recognition protein, SEQ ID NO: 23 (protein)
chain: MTVSQSKTQGAPAAQSATELEYEGLWRVVVLNDPVNLMSYVVLVFKKVFGFDETTARKHMLEVHEQGRSVVWSGMREKAEAYAFTLQQWHLTTVLEQDEVR
B7: PS368: ClpS amino acid recognition protein, SEQ ID NO: 1 (protein)
chain: MASAPSTTLDKSTQVVKKTYPNYKVIVLNDDLNTFDHVANCLIKYIPDMTTDRAWELTNQVHYQGQAIVWTGPQEQAELYHQQLRREGLTMAPLEAA
B8: PS514: amino acid recognition protein, SEQ ID NO: 142 (protein, listed as Tribolium castaneum)
chain: MVCGRVFKLGEPTYSCRECGMDNTCVLCVNCFKNSEHRFHKYKMGTSQGGGCCDCGDVEAWKKAPFCDVHIA
B9: Saccharomyces cerevisiae GID10: amino acid recognition protein, SEQ ID NO: 125 (protein, listed as Saccharomyces cerevisiae)
chain: MTSLNIMGRKFILERAKRNDNIEEIYTSAYVSLPSSTDTRLPHFKAKEEDCDVYEEGTNLVGKNAKYTYRSLGRHLDFLRPGLRFGGSQSSKYTYYTVEVKIDTVNLPLYKDSRSLDPHVTGTFTIKNLTPVLDKVVTLFEGYVINYNQFPLCSLHWPAEETLDPYMAQRESDCSHWKRFGHFGSDNWSLTERNFGQYNHESAEFMNQRYIYLKWKERFLLDDEEQENQMLDDNHHLEGASFEGFYYVCLDQLTGSVEGYYYHPACELFQKLELVPTNCDALNTYSSGFEIA
B10: PS506: amino acid recognition protein, SEQ ID NO: 134 (protein, listed as Capitella teleta)
chain: MLCGKVFKMGELTYSCRDCGTDPTCVLCMDCFQHSAHKKHRYKMAASGGGGYCDCGDREAWKAEPFCDVHKR
B11: PS521: amino acid recognition protein, SEQ ID NO: 149 (protein)
chain: MLCGRVFRSGEPTYSCRDCAVDPTCVLCIDCFNNGAHRKHKYRMSTSSGGGYCDCGDKEAWKTDPLCEIHRK
modifications: Lingula anatine
B12: PS516: amino acid recognition protein, SEQ ID NO: 144 (protein)
chain: MLCGKVFKTGEPTYSCRDCANDPTCVLCIDCFQNGAHKNHRYKMNTSGGGGYCDCGDQEAWTSHPFCNLHSP
modifications: Crassostrea gigas
B13: PS505: amino acid recognition protein, SEQ ID NO: 133 (protein, listed as Brachionus plicatilis)
chain: MVCGRVFKSGEPSYFCRECGTDPTCVLCSICFRHSKHRYHKYVMMTSGGGGYCDCGDPEAWKSDPCCELHMP
B14: PS508: amino acid recognition protein, SEQ ID NO: 136 (protein)
chain: MLCGRVFKEGETVYSCRDCAIDPTCVLCIECFQKSVHKSHRYKMHASAGGGFCDCGDLEAWKTGPCCSQHDP
modifications: Anabarilius graham
B15: PS512: amino acid recognition protein, SEQ ID NO: 140 (protein, listed as Mastacembelus armatus)
chain: B14 chain with I29M, E30D, K34D, L58V, T63I, C66Y, Q69K
B16: PS520: amino acid recognition protein, SEQ ID NO: 148 (protein, listed as Monopterus albus)
chain: B14 chain with I29M, E30D, K34D, A48S, L58V, T63I, Q69K
B17: PS503: amino acid recognition protein, SEQ ID NO: 131 (protein, listed as Hydra vulgaris)
chain: MFCGRLFKVGDPTYTCKDCAADPTCVFCHDCFHQSVHTKHKYKLFASQGRGGYCDCGDKEAWTNDPACNKHKE
B18: PS517: amino acid recognition protein, SEQ ID NO: 145 (protein)
chain: MMCGRVFKMGEPTYSCRECGVDSTCVLCVGCFQQSAHRDHKYKMGTSGGGGCCDCGDTEAWKRDPFCEIHMV
modifications: Harpegnathos saltator
B19: PS510: amino acid recognition protein, SEQ ID NO: 138 (protein, listed as Camponotus floridanus)
chain: MICGRMFKMGEPTYSCRQCGMDSTCVLCVDCFKQSAHRNHKYKMGTSSGGGCCDCGDTEAWKNEPFCKIHLA
B20: PS515: amino acid recognition protein, SEQ ID NO: 143 (protein, listed as Wasmannia auropunctata)
chain: B19 chain with R5K, M9I, Q18E, N63K, I69T, L71V, A72V
B21: PS507: amino acid recognition protein, SEQ ID NO: 135 (protein, listed as Sparassis crispa)
chain: MPCGHIFKKGESCFRCKDCALDDSCVLCSKCFEATDHANHNVSFFIAQQSGGCCDCGDIEAWLVPIDCPFHPV
B22: PS513: amino acid recognition protein, SEQ ID NO: 141 (protein, listed as Pyrenophora seminiperda)
chain: MPCGHIFKNGEATYRCKTCTADDTCVLCARCFDASDHEGHQVFVSVSPGNSGCCDCGDDEAWVRPVHCNIHSA
B23: PS502: amino acid recognition protein, SEQ ID NO: 130 (protein, listed as Helobdella robusta)
chain: MVCLKVFKLGEPTYSCRSVTCGMDPTCVLCVDCFQNSSHKLHKYKMSTSGGGGYCDCGDLEAWKADPLCDLHKL
B24: PS509: amino acid recognition protein, SEQ ID NO: 137 (protein)
chain: MICGHGFKTGEPTYSCRDCATDPTCVLCISCFQKSPHREHRYKMSASGGGGYCDCGDPEAWKIEPFCEQHKP
modifications: Lottia gigantean
B25: PS504: amino acid recognition protein, SEQ ID NO: 132 (protein, listed as Galleria mellonella)
chain: MLCGKVFKQGEPAYSCRECGMDNTCVLCVECFKVSPHRHHKYKMGQSGGGGCCDCGDTEAWKRDPFCERHAK
B26: PS519: amino acid recognition protein, SEQ ID NO: 147 (protein, listed as Manduca sexta)
chain: B25 chain with K5R, P36A, R69L, K72A
B27: PS511: amino acid recognition protein, SEQ ID NO: 139 (protein, listed as Habropoda laboriosa)
chain: MICGKVFKMGEATYSCKECGVDPTCVLCADCFKQSAHRHHKYRMGTSSGGGFCDCGDIEAWKKEPFCNTHLA
B28: PS501: amino acid recognition protein, SEQ ID NO: 129 (protein, listed as Amanita thiersii)
chain: MICGQIIGKGESCFRCRDCGLDESCVMCSQCFHATDHINHNVSFFVSQQPGGCCDCGDEEAWKKPMNCPYHPP
B29: PS518: amino acid recognition protein, SEQ ID NO: 146 (protein, listed as Nilaparvata lugens)
chain: MVCGRVFKMGEPSYHCRECGMDATCVLCVDCFKKSSHRNHKYKMGTSIGGGCCDCGDVEAWKTEPYCEVHIA

System: amino acid at a terminal position of a polypeptide
Details: Table 1, ClpS proteins; amino acid at terminal position; inferred from literature and/or demonstrated by the inventors; cited from earlier work

Molecule | Binding Pref.
B1 | F, Y, W, L
B2 | F, Y, W, L
B3 | F, Y, W
B4 | F, Y, W, L
B5 | F, Y, L
B6 | F, Y, W, L
B7 | F, Y, W, L

Same assay, conditions: Table 2; amino acid at terminal position (phosphotyrosine also internal); inferred from literature and/or demonstrated by the inventors; cited from earlier work

Molecule | Binding Pref.
B8 | K, R, H
B9 | P, M, V
B10 | K, R, H
B11 | K, R, H
B12 | K, R, H
B13 | K, R, H
B14 | K, R, H
B15 | K, R, H
B16 | K, R, H
B17 | K, R, H
B18 | K, R, H
B19 | K, R, H
B20 | K, R, H
B21 | K, R, H
B22 | K, R, H
B23 | K, R, H
B24 | K, R, H
B25 | K, R, H
B26 | K, R, H
B27 | K, R, H
B28 | K, R, H
B29 | K, R, H
